Experiments:
HER3-Fc = molecular target: T1, HER3-Fc (UniProt P21860 20-643); assay: ELISA, HER3-Fc
T1 construct: not shown: Fc part

TRAIL-R2-Fc [1] = molecular target: T2, TRAIL-R2-Fc (human, UniProt O14763 56-210); assay: ELISA, TRAIL-R2-Fc
T2 construct: extracellular domain; also called DR5-Fc; DR5-Fc fusion protein; not shown: Fc-part

[2] = molecular target: T3, EGFR on EGFR-positive tumor cell lines (UniProt P00533 25-1210, limits assumed); assay: flow cytometry, Colo205 cells
T3 construct: whole, on cells; The cell line is named under assay or readout; also called EGFR+ cell lines

[3] = molecular target: T3, EGFR on EGFR-positive tumor cell lines; assay: flow cytometry, Colo205 cells; remark: listed apart in the source
[4] = molecular target: T3, EGFR on EGFR-positive tumor cell lines; assay: flow cytometry, HCT116 cells
[5] = molecular target: T3, EGFR on EGFR-positive tumor cell lines; assay: flow cytometry, HCT116 cells; remark: listed apart in the source
EGFR-Fc = molecular target: T4, EGFR-Fc (UniProt P00533 25-645); assay: ELISA, EGFR-Fc
T4 construct: also called purified EGFR-Fc; not shown: Fc part

TRAIL-R1-Fc = molecular target: T5, TRAIL-R1-Fc (human, UniProt O00220 24-239); assay: ELISA, coated DR4-Fc (3 µg/ml), anti-Flag-HRP detection
T5 construct: extracellular domain; also called DR4-Fc; not shown: Fc-part

DcR2-Fc = molecular target: T6, DcR2-Fc (human, UniProt Q9UBN6 56-211); assay: ELISA, coated DcR2-Fc (3 µg/ml), anti-Flag-HRP detection
T6 construct: extracellular domain; also called TRAIL-R4-Fc; not shown: Fc-part
T6 sequence (looked up): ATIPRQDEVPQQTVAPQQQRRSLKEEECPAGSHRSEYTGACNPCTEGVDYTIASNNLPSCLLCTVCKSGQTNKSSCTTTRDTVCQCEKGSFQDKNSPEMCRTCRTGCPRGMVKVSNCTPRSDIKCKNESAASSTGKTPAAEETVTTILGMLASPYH

[6] = molecular target: T3, EGFR on EGFR-positive tumor cell lines; assay: cell-based or functional assay
TRAIL-R2-Fc [7] = molecular target: T2, TRAIL-R2-Fc; assay: ELISA, coated DR5-Fc (3 µg/ml), anti-Flag-HRP detection
Procedure: The binding properties of the scTRAIL₃-fusion proteins to all five human TRAIL receptors were analyzed via ELISA. The extracellular domain (ECD) of the human death receptors (DR) 4 (TRAIL-R1) and 5 (TRAIL-R2), or of the human decoy receptors (DcR) 1 (TRAIL-R3) and 2 (TRAIL-R4) as well as human osteoprotegerin (OPG) was fused to the N-terminus of the Fc-part and was expressed in transiently transfected HEK293 cells. ELISA-plates were coated with ECD-Fc or OPG-Fc fusion proteins (3 μg/ml). […] Bound scTRAIL₃-fusion proteins were detected via HRP-conjugated anti-Flag antibody.

B1: scFv3M6-EHD2-scTRAIL3-FLVGGGPQRVA (other)
chain: EVQLLESGGGLVQPGGSLRLSCAASGFTFSHYVMAWVRQAPGKGLEWVSSISSSGGWTLYADSVKGRFTISRDNSKNTLYLQMNSLRAEDTAVYYCTRGLKMATIFDYWGQGTLVTVSSGGGGSGGGGSGGGGSQSALTQPASVSGSPGQSITISCTGTSSDVGSYNVVSWYQQHPGKAPKLIIYEVSQRPSGVSNRFSGSKSGNTASLTISGLQTEDEADYYCSSYAGSSIFVIFGGGTKVTVLAAAGGSGGDFTPPTVKILQSSCDGGGHFPPTIQLLCLVSGYTPGTINITWLEDGQVMDVDLSTASTTQEGELASTQSELTLSQKHWLSDRTYTCQVTYQGHTFEDSTKKCADSNGGSGGASSGGGPQRVAAHITGTRGRSNTLSSPNSKNEKALGRKINSWESSRSGHSFLSNLHLRNGELVIHEKGFYYIYSQTYFRFQEEIKENTKNDKQMVQYIYKYTSYPDPILLMKSARNSCWSKDAEYGLYSIYQGGIFELKENDRIFVSVTNEHLIDMDHEASFFGAFLVGGGPQRVAAHITGTRGRSNTLSSPNSKNEKALGRKINSWESSRSGHSFLSNLHLRNGELVIHEKGFYYIYSQTYFRFQEEIKENTKNDKQMVQYIYKYTSYPDPILLMKSARNSCWSKDAEYGLYSIYQGGIFELKENDRIFVSVTNEHLIDMDHEASFFGAFLVGGGPQRVAAHITGTRGRSNTLSSPNSKNEKALGRKINSWESSRSGHSFLSNLHLRNGELVIHEKGFYYIYSQTYFRFQEEIKENTKNDKQMVQYIYKYTSYPDPILLMKSARNSCWSKDAEYGLYSIYQGGIFELKENDRIFVSVTNEHLIDMDHEASFFGAFLV
- EC50 (HER3-Fc): 11600 pM
- EC50 (TRAIL-R2-Fc [1]): 2650 pM

B2: anti-EGFR IgG (antibody, V domains shown)
VH: EVQLVESGGGLVQPGGSLRLSCAASGFSLTNYGVHWVRQAPGKGLEWLGVIWSGGNTDYNTPFTSRFTISRDNSKNTLYLQMNSLRAEDTAVYYCARALTYYDYEFAYWGQGTTVTVSS
VL: DIQLTQSPSFLSASVGDRVTITCRASQSIGTNIHWYQQKPGKAPKLLIKYASESISGVPSRFSGSGSGTEFTLTISSLQPEDFATYYCQQNNNWPTTFGAGTKLEIKR
notes: EGFR-specific human IgG1 with mutated Fc domain (ADCC/CDC), kappa light chain, N-terminal FLAG tag on the heavy chain; derived from cetuximab by humanization; also called hu225 (anti-EGFR) IgG; anti-EGFR human IgG1 scaffold antibody
- EC50 [2]: 60 pM
- EC50 [3]: 28 pM
- EC50 [4]: 70 pM
- EC50 [5]: 8 pM
- EC50 (EGFR-Fc): 156 pM

B3: Db10-Glyco-scTRAIL3-FAVSGAA (other)
chain: LEASDYKDDDDKGAEVQLVESGGGLVQPGGSLRLSCAASGFSLTNYGVHWVRQAPGKGLEWLGVIWSGGNTDYNTPFTSRFTISRDNSKNTLYLQMNSLRAEDTAVYYCARALTYYDYEFAYWGQGTTVTVSSGGGGSGGGGSDIQLTQSPSFLSASVGDRVTITCRASQSIGTNIHWYQQKPGKAPKLLIKYASESISGVPSRFSGSGSGTEFTLTISSLQPEDFATYYCQQNNNWPTTFGAGTKLEIKRAAAGNGTSNGTSEFGGAAAHITGTRGRSNTLSSPNSKNEKALGRKINSWESSRSGHSFLSNLHLRNGELVIHEKGFYYIYSQTYFRFQEEIKENTKNDKQMVQYIYKYTSYPDPILLMKSARNSCWSKDAEYGLYSIYQGGIFELKENDRIFVSVTNEHLIDMDHEASFFGAFAVSGAAAHITGTRGRSNTLSSPNSKNEKALGRKINSWESSRSGHSFLSNLHLRNGELVIHEKGFYYIYSQTYFRFQEEIKENTKNDKQMVQYIYKYTSYPDPILLMKSARNSCWSKDAEYGLYSIYQGGIFELKENDRIFVSVTNEHLIDMDHEASFFGAFAVSGAAAHITGTRGRSNTLSSPNSKNEKALGRKINSWESSRSGHSFLSNLHLRNGELVIHEKGFYYIYSQTYFRFQEEIKENTKNDKQMVQYIYKYTSYPDPILLMKSARNSCWSKDAEYGLYSIYQGGIFELKENDRIFVSVTNEHLIDMDHEASFFGAFAVS
modifications: glycosylated connecting peptide
notes: also called Db10hu225-Glyco-scTRAIL3-FAVSGAA; Db10-glyco-scTRAIL3-FAVSGGA
- binding result (TRAIL-R1-Fc): binds
- binding result (DcR2-Fc): binds
- EC50 of cell death induction, Colo205, with Bortezomib [6]: 13 pM
- EC50 of cell death induction, Colo205, with Bortezomib + Cetuximab [6]: 66 pM
- EC50 of cell death induction, HCT116, with Bortezomib [6]: 39 pM
- EC50 of cell death induction, HCT116, with Bortezomib + Cetuximab [6]: 298 pM
- EC50 of cell death induction, HT1080, with Bortezomib [6]: 0.7 pM
- EC50 of cell death induction, HT1080, with Bortezomib + Cetuximab [6]: 8 pM
- binding result (TRAIL-R2-Fc [7]): binds

Source: US20180094059A1 (UNIVERSITAT STUTTGART, published 2018)
